# Molecular target: the molecule itself
# Test: 2-D nonreducing/reducing SDS-PAGE
row,Protein,stoichiometry N
1,"CD3 zeta (transfected cDNA) (natural protein, murine, UniProt P24161-1 22-164, looked up) QSFGLLDPKLCYLLDGILFIYGVIITALYLRAKFSRSAETAANLQDPNQLYNELNLGRREEYDVLEKKRARDPEMGGKQQRRRNPQEGVYNALQKDKMAEAYSEIGTKGERRRGKGHDGLYQGLSTATKDTYDALHMQTLAPR",2
2,"CD3 zeta (endogenous) (natural protein, murine, UniProt P24161-1 22-164, looked up) QSFGLLDPKLCYLLDGILFIYGVIITALYLRAKFSRSAETAANLQDPNQLYNELNLGRREEYDVLEKKRARDPEMGGKQQRRRNPQEGVYNALQKDKMAEAYSEIGTKGERRRGKGHDGLYQGLSTATKDTYDALHMQTLAPR",2
3,"CD3 eta (transfected cDNA) (natural protein, murine, UniProt P24161-2 22-206, looked up) QSFGLLDPKLCYLLDGILFIYGVIITALYLRAKFSRSAETAANLQDPNQLYNELNLGRREEYDVLEKKRARDPEMGGKQQRRRNPQEGVYNALQKDKMAEAYSEIGTKGERRRGKGHDGLYQDSHFQAVQFGNRREREGSELTRTLGLRARPKGESTQQSSQSCASVFSIPTLWSPWPPSSSSQL",2

# Source: paper PMC2188614 (The Journal of Experimental Medicine, 1990)
